Measurements: US20100233157A1 (published 2010)

Tests used:
JPT31 peptide = target: T1, JPT31 peptide (human); experiment: peptide microarray (JPT), 50 ug/ml antibody
T1 construct: Peptide of the human Fas peptide scan, immobilized on a glass microarray (JPT peptide technologies)
T1 peptide: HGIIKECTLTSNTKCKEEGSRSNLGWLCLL
Protocol: (§1) Epitope mapping of F45D9-γ1 and F45D9-γ4 mAb was done using peptide microarrays from JPT peptide technologies. The microarray is composed of several different peptide scans of TNR6_Human protein (FAS molecule, accession number P25445; Oehm A. et al. J. Biol. Chem. 267:10709, 1992), immobilized on a glass surface. The microarrays were pre-treated 2 h at room temperature with blocking buffer (Pierce, Superblock), followed by washings with TBS buffer, pH 8.0 and water (3 times each). Pre-treated arrays were scanned using Axon-4000B-Microarray Scanner for background control. […] Control incubation with secondary antibody only was performed in parallel. All microarrays were scanned using Axon-4000B-Microarray Scanner with appropriate wavelength settings. SPOT recognition software package ArrayPro was used for data analysis. Mean of signal intensities from 3 identical subarrays on each microarray image were used for data evaluation.

JPT32 peptide = target: T2, JPT32 peptide (human); experiment: peptide microarray (JPT), 50 ug/ml antibody
T2 construct: Peptide of the human Fas peptide scan, immobilized on a glass microarray (JPT peptide technologies)
T2 peptide: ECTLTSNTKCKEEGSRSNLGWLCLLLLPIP
Protocol: as §1

JPT33 peptide = target: T3, JPT33 peptide (human); experiment: peptide microarray (JPT), 50 ug/ml antibody
T3 construct: Peptide of the human Fas peptide scan, immobilized on a glass microarray (JPT peptide technologies)
T3 peptide: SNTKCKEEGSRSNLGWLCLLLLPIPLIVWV
Protocol: as §1

[1] = target: T4, Cynomolgus macaque Fas on the cell surface (cynomolgus macaque, UniProt Q9TSN4 26-331); experiment: flow cytometry histograms (FL1-H) on cynomolgus macaque cells (cell type not printed on the sheet), FITC anti-human kappa or FITC anti-human IgG secondary
T4 construct: whole, on cells; also called Fas on cynomolgus macaque B cell line and PBL
T4 sequence (looked up): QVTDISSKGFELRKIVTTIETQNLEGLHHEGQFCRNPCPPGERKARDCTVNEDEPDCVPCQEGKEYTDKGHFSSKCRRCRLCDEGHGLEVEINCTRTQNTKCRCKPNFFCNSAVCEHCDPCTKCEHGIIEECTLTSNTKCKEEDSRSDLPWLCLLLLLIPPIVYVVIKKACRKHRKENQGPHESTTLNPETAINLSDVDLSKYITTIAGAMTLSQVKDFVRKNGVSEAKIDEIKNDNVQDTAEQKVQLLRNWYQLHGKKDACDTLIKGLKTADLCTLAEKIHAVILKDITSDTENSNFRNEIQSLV
From the text: (§2) Reactivity of F45D9-γ1 or F45D9-γ4 mAb with Fas molecules of various species was initially screened using primary blood cells or lymphocytes cell lines. The binding of F45D9-γ1 or F45D9-γ4 mAb was explored by immunofluoresce staining and flow cytometry analysis, in human PBMC, purified human resting T cells, activated human T cells, peripheral blood lymphocytes (PBL) derived from BALE/c mice, rat, dog and pig, and in B cell lines or PBL derived from common marmoset, cynomolgus macaque, olive baboon, rhesus macaque and chimpanzee. Resting and activated human T cells were prepared as described in Example 7. B cells lines from monkeys were obtained from Biomedical Primate Research Center (Rijswijk, The Netherlands), and were cultured in RPMI 1640 medium supplemented with 2 mM glutamax, 100 UI/mL penicillin, 100 μg/mL streptomycin and 10% fetal bovine serum, at 37° C. and 5% CO₂. After washing in PBS cells (0.2−0.4×10⁶ cells/well) were incubated in staining buffer (PBS/1% FBS) containing F45D9-γ1 or human IgG control antibodies (10-20 ug/ml) in a 96-well U-bottom plate for 30 min on ice, in a 100 ul/well volume. Cells were then washed once with staining buffer, and further incubated for 30 min on ice with 1:30 dilution of FITC-conjugated rabbit F(ab′)₂ anti-human kappa (DakoCytomation Cat. F0434) or FITC-conjugated rabbit F(ab′)₂ anti-human IgG (DakoCytomation Cat. F0056). […]

[2] = target: T5, Chimpanzee Fas on the cell surface (chimpanzee, UniProt K6ZIR5 26-335); experiment: flow cytometry histograms (FL1-H) on chimpanzee cells (cell type not printed on the sheet), FITC anti-human IgG secondary
T5 construct: also called Fas on chimpanzee B cell line
T5 sequence: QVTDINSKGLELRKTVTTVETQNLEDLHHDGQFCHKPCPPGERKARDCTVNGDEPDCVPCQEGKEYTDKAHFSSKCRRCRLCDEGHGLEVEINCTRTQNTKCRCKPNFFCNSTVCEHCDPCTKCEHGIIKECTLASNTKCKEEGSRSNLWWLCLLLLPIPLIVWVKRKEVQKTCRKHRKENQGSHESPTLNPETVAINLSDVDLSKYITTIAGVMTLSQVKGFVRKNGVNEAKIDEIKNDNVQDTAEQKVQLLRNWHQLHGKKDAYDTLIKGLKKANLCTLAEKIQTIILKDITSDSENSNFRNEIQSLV
From the text: as §2

B1: F45D9-γ1 mAb (recombinant human mAb T17/B2-1G4, gamma-1 isotype) (antibody, V domains shown)
VH: QVQLQQWGAGLLKPSETLSLICAVYGGSFSTYYWTWIRQPPGKGLEWIGEINHRGTTNYSPSLKSRVTISVDTSKNHISLNLTSVTAADTALYYCARGLLWIGEGDYGLDVWGQGTTVTVSS
VL: DIQMTQSPSSLSASVGDRVTITCRASQGIRRWLAWYQQKPEKAPKSLIYAASSLQSGVPSRFSGSGSGTDFTLTISSLQPEDFATYYCQQYNSYPYTFGQGTKLEIKR
notes: Whole human IgG1 (γ1fa allotype) with human kappa light chain, made in CHO DG44 cells; also called IgG1; T17/L18/B2-1G4
- binding result (JPT31 peptide): binds
- binding result (JPT32 peptide): binds
- binding result (JPT33 peptide): binds
- binding result [1]: no binding
- binding result [2]: binds
